{"source": "paper PMC12609908", "test_in_all_cases": "EMSA", "details_in_all_cases": "50 mM Tris-HCl pH 8.0, 100 mM NaCl, 40% glycerol, 5 mM DTT, 2 mM EDTA, 4 °C 1 h; 10% native PAGE in 0.5x TBE at 4 °C", "key": {"[1]": {"target": "T1, CutR R19A R19A (Mycobacterium sp. strain JC1) (UniProt D5G1X9)", "T1 sequence": "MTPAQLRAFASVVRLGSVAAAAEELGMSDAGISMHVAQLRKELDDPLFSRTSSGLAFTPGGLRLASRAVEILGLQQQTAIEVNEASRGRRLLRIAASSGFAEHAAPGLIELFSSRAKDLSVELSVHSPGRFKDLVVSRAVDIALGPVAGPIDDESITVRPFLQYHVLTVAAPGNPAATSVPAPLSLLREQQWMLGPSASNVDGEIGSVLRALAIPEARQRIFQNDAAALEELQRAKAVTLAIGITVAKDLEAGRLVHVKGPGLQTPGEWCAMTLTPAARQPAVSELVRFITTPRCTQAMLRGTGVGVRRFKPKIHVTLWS"}, "[2]": {"target": "T2, CutR Q5A Q5A (Mycobacterium sp. strain JC1) (UniProt D5G1X9)", "T2 sequence": "T1 sequence with Q5A, A19R"}, "[3]": {"target": "T3, CutR Q38A Q38A (Mycobacterium sp. strain JC1) (UniProt D5G1X9)", "T3 sequence": "T1 sequence with A19R, Q38A"}, "[4]": {"target": "T4, CutR R7A R7A (Mycobacterium sp. strain JC1) (UniProt D5G1X9)", "T4 sequence": "T1 sequence with R7A, A19R"}, "[5]": {"target": "T5, CutR R40A R40A (Mycobacterium sp. strain JC1) (UniProt D5G1X9)", "T5 sequence": "T1 sequence with A19R, R40A"}}, "note": "Where a chain is given by its changes, count along the chain named."}
{"sequence": "ACCCCGAGTTAAGTGATTCCTTAACTCGCTATTGACGCCATCGCGGCGGCAACGGAAACTAGCCACTTCAGCCACGACGTTGTGAGGATGATCACATGCAA (double strand) [IR1 to CRP motif fragment (101 bp)]", "values": [{"measurement": "binding", "setting": "[1]", "result": "binds"}, {"measurement": "binding", "setting": "[2]", "result": "binds"}, {"measurement": "binding", "setting": "[3]", "result": "binds"}, {"measurement": "binding", "setting": "[4]", "result": "binds"}, {"measurement": "binding", "setting": "[5]", "result": "no binding"}]}
